Data as given in paper PMC6089609 (Methods in cell biology, 2015).

Biological target: the molecule itself
Test: negative stain and cryo-electron microscopy of assemblies on liposomes

B1: EndophilinA1 (natural protein, human, UniProt Q99962 1-352, looked up)
chain: MSVAGLKKQFHKATQKVSEKVGGAEGTKLDDDFKEMERKVDVTSRAVMEIMTKTIEYLQPNPASRAKLSMINTMSKIRGQEKGPGYPQAEALLAEAMLKFGRELGDDCNFGPALGEVGEAMRELSEVKDSLDIEVKQNFIDPLQNLHDKDLREIQHHLKKLEGRRLDFDYKKKRQGKIPDEELRQALEKFDESKEIAESSMFNLLEMDIEQVSQLSALVQAQLEYHKQAVQILQQVTVRLEERIRQASSQPRREYQPKPRMSLEFPTGDSTQPNGGLSHTGTPKPSGVQMDQPCCRALYDFEPENEGELGFKEGDIITLTNQIDENWYEGMLHGHSGFFPINYVEILVALPH
  binding result: binds
